The subject of the data set is PKCα-S10.

B1: PKCι (enzyme, UniProt P41743 2-596, looked up, species assumed)
Protein kinase C iota type: PTQRDSSTMSHTVAGGGSGDHSHQVRVKAYYRGDIMITHFEPSISFEGLCNEVRDMCSFDNEQLFTMKWIDEEGDPCTVSSQLELEEAFRLYELNKDSELLIHVFPCVPERPGMPCPGEDKSIYRRGARRWRKLYCANGHTFQAKRFNRRAHCAICTDRIWGLGRQGYKCINCKLLVHKKCHKLVTIECGRHSLPQEPVMPMDQSSMHSDHAQTVIPYNPSSHESLDQVGEEKEAMNTRESGKASSSLGLQDFDLLRVIGRGSYAKVLLVRLKKTDRIYAMKVVKKELVNDDEDIDWVQTEKHVFEQASNHPFLVGLHSCFQTESRLFFVIEYVNGGDLMFHMQRQRKLPEEHARFYSAEISLALNYLHERGIIYRDLKLDNVLLDSEGHIKLTDYGMCKEGLRPGDTTSTFCGTPNYIAPEILRGEDYGFSVDWWALGVLMFEMMAGRSPFDIVGSSDNPDQNTEDYLFQVILEKQIRIPRSLSVKAASVLKSFLNKDPKERLGCHPQTGFADIQGHPFFRNVDWDMMEQKQVVPPFKPNISGEFGLDNFDSQFTNEPVQLTPDDDDIVRKIDQSEFEGFEYINPLLMSAEECV
Consider B1, for which the “phosphorylation activity (1 µM peptide, 2 ng kinase)” value (“phosphorylation activity” below) was “very little activity is detected with PKCε, PKCζ, PKCη and PKCι”.

B2: PKCµ (enzyme, UniProt Q15139 1-912, looked up, species assumed)
Serine/threonine-protein kinase D1: MSAPPVLRPPSPLLPVAAAAAAAAAALVPGSGPGPAPFLAPVAAPVGGISFHLQIGLSREPVLLLQDSSGDYSLAHVREMACSIVDQKFPECGFYGMYDKILLFRHDPTSENILQLVKAASDIQEGDLIEVVLSASATFEDFQIRPHALFVHSYRAPAFCDHCGEMLWGLVRQGLKCEGCGLNYHKRCAFKIPNNCSGVRRRRLSNVSLTGVSTIRTSSAELSTSAPDEPLLQKSPSESFIGREKRSNSQSYIGRPIHLDKILMSKVKVPHTFVIHSYTRPTVCQYCKKLLKGLFRQGLQCKDCRFNCHKRCAPKVPNNCLGEVTINGDLLSPGAESDVVMEEGSDDNDSERNSGLMDDMEEAMVQDAEMAMAECQNDSGEMQDPDPDHEDANRTISPSTSNNIPLMRVVQSVKHTKRKSSTVMKEGWMVHYTSKDTLRKRHYWRLDSKCITLFQNDTGSRYYKEIPLSEILSLEPVKTSALIPNGANPHCFEITTANVVYYVGENVVNPSSPSPNNSVLTSGVGADVARMWEIAIQHALMPVIPKGSSVGTGTNLHRDISVSISVSNCQIQENVDISTVYQIFPDEVLGSGQFGIVYGGKHRKTGRDVAIKIIDKLRFPTKQESQLRNEVAILQNLHHPGVVNLECMFETPERVFVVMEKLHGDMLEMILSSEKGRLPEHITKFLITQILVALRHLHFKNIVHCDLKPENVLLASADPFPQVKLCDFGFARIIGEKSFRRSVVGTPAYLAPEVLRNKGYNRSLDMWSVGVIIYVSLSGTFPFNEDEDIHDQIQNAAFMYPPNPWKEISHEAIDLINNLLQVKMRKRYSVDKTLSHPWLQDYQTWLDLRELECKIGERYITHESDDLRWEKYAGEQGLQYPTHLINPSASHSDTPETEETEMKALGERVSIL
In the case of B2, the “phosphorylation activity” value was “no activity is observed with PKCδ, PKCµ, and PKCν”.

B3: PKCζ (enzyme, UniProt Q05513 1-592, looked up, species assumed)
Protein kinase C zeta type: MPSRTGPKMEGSGGRVRLKAHYGGDIFITSVDAATTFEELCEEVRDMCRLHQQHPLTLKWVDSEGDPCTVSSQMELEEAFRLARQCRDEGLIIHVFPSTPEQPGLPCPGEDKSIYRRGARRWRKLYRANGHLFQAKRFNRRAYCGQCSERIWGLARQGYRCINCKLLVHKRCHGLVPLTCRKHMDSVMPSQEPPVDDKNEDADLPSEETDGIAYISSSRKHDSIKDDSEDLKPVIDGMDGIKISQGLGLQDFDLIRVIGRGSYAKVLLVRLKKNDQIYAMKVVKKELVHDDEDIDWVQTEKHVFEQASSNPFLVGLHSCFQTTSRLFLVIEYVNGGDLMFHMQRQRKLPEEHARFYAAEICIALNFLHERGIIYRDLKLDNVLLDADGHIKLTDYGMCKEGLGPGDTTSTFCGTPNYIAPEILRGEEYGFSVDWWALGVLMFEMMAGRSPFDIITDNPDMNTEDYLFQVILEKPIRIPRFLSVKASHVLKGFLNKDPKERLGCRPQTGFSDIKSHAFFRSIDWDLLEKKQALPPFQPQITDDYGLDNFDTQFTSEPVQLTPDDEDAIKRIDQSEFEGFEYINPLLLSTEESV
With B3, the “phosphorylation activity” value was “very little activity is detected with PKCε, PKCζ, PKCη and PKCι”.

B4: PKCν (enzyme, UniProt O94806 1-890, looked up, species assumed)
Serine/threonine-protein kinase D3: MSANNSPPSAQKSVLPTAIPAVLPAASPCSSPKTGLSARLSNGSFSAPSLTNSRGSVHTVSFLLQIGLTRESVTIEAQELSLSAVKDLVCSIVYQKFPECGFFGMYDKILLFRHDMNSENILQLITSADEIHEGDLVEVVLSALATVEDFQIRPHTLYVHSYKAPTFCDYCGEMLWGLVRQGLKCEGCGLNYHKRCAFKIPNNCSGVRKRRLSNVSLPGPGLSVPRPLQPEYVALPSEESHVHQEPSKRIPSWSGRPIWMEKMVMCRVKVPHTFAVHSYTRPTICQYCKRLLKGLFRQGMQCKDCKFNCHKRCASKVPRDCLGEVTFNGEPSSLGTDTDIPMDIDNNDINSDSSRGLDDTEEPSPPEDKMFFLDPSDLDVERDEEAVKTISPSTSNNIPLMRVVQSIKHTKRKSSTMVKEGWMVHYTSRDNLRKRHYWRLDSKCLTLFQNESGSKYYKEIPLSEILRISSPRDFTNISQGSNPHCFEIITDTMVYFVGENNGDSSHNPVLAATGVGLDVAQSWEKAIRQALMPVTPQASVCTSPGQGKDHKDLSTSISVSNCQIQENVDISTVYQIFADEVLGSGQFGIVYGGKHRKTGRDVAIKVIDKMRFPTKQESQLRNEVAILQNLHHPGIVNLECMFETPERVFVVMEKLHGDMLEMILSSEKSRLPERITKFMVTQILVALRNLHFKNIVHCDLKPENVLLASAEPFPQVKLCDFGFARIIGEKSFRRSVVGTPAYLAPEVLRSKGYNRSLDMWSVGVIIYVSLSGTFPFNEDEDINDQIQNAAFMYPPNPWREISGEAIDLINNLLQVKMRKRYSVDKSLSHPWLQDYQTWLDLREFETRIGERYITHESDDARWEIHAYTHNLVYPKHFIMAPNPDDMEEDP
B4: the “phosphorylation activity” value is “no activity is observed with PKCδ, PKCµ, and PKCν”.
